Test results: the supplement of paper PMC10567573

B1: NCF4 (parent)
chain: FVKILKDFPEEDDPTNWLRCYYYE
B2: PPP2R2B (parent)
chain: PSNRSFFSEIISSISDVKFSHSGR

Variants of: B1
Assay: protein stability index of a GFP-peptide fusion (GPS, HEK-293T) (PSI 1-6); higher = more stable
Conditions: c terminus: a fixed tail appended
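Note: lentivirally expressed fusions sorted by FACS into six bins by GFP to DsRed ratio, PSI derived from sequencing read proportions per bin multiplied by bin number.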

Protein stability index, by site and new letter:
C20: R 2.12, T 2.38, A 1.58, S 1.96, L 1.69, E 2.12, W 1.5, G 2.06, H 1.84, Y 1.9, Q 2.03, F 2.03, V 1.72, P 1.23, K 2.32, N 2.74, M 2.02, D 1.79
Y21: E 1.41, V 2.53, L 2.62, A 1.1, F 1.91, I 2.44, C 1.61, M 1.75, Q 1.93, S 1.8, G 1.06, R 1.9, K 2.47, H 2.55, N 3.57, D 2.02, W 1.89
E11: F 3.95, W 2.04, S 1.71, Y 1.96, A 1.68, L 2.74, H 3.15, K 1.39, I 2.4, M 1.01, Q 2.98, D 1.88, R 1.75, T 2.96
N16: K 1.81, R 1.47, Q 2.05, M 2.61, V 1.82, H 5.27, F 2.41, Y 2.46, T 2.25, G 1.61, P 2.55, C 3.04, I 1.75, S 1.53, A 1.61, D 1.7, W 1.58, L 1.64, E 2.71
W17: E 1.91, D 1.91, R 1.52, Y 2.4, K 1.93, M 1.85, S 1.52, T 1.85, V 1.31, P 1.54, I 1.84, L 1.74, F 1.59, G 1.79, H 2.34, Q 1.89, A 1.93, C 2.55, N 3.07
L18: Q 1.73, Y 1.96, A 2.1, H 1.66, C 1.58, P 2.42, N 1.86, T 2.24, E 2.13, D 1.94, M 1.72, V 2.34, G 1.92, S 2.15, K 1.55, R 1.9
F8: V 2.59, K 1.8, R 1.69, Y 4.09, M 3.67, L 1.15, W 3.2, S 2.92, P 1.68, Q 1.67
R19: F 2.28, V 1.74, T 2.28, K 4.32, H 3.89, M 2.31, A 2.27, W 1.78, I 1.84, G 1.09, S 1.79, N 2.83, L 1.78, Q 1.42, E 1.56, P 2.54, D 2.32, C 1.01, Y 3.01
T15: Q 2.02, W 1.41, C 1.88, Y 1.84, H 1.3, P 2.88, D 1.79, A 2.18, F 1.79, S 2.14, I 1.44, R 3.22, M 2.32, K 1.93, E 2.85, L 2.27, N 2.03, G 1.66, V 1.9
P9: N 2.15, R 1.6, T 1.73, Y 1.38, I 1.65, A 2.67, M 2.75, E 1.74, F 1.1, K 1.37, V 2.21, C 1.26, D 1.85, W 1.27
D13: C 1.96, Q 2.12, I 1.29, W 3.15, F 3.57, S 2.46, P 1.4, R 1.66, T 2.72, Y 2.81, M 3.83, G 1.04, E 2.69, H 2.54, V 1.53
E24: I 2.39, M 2.05, V 2.32, Y 1.47, R 1.51, K 1.99, D 1.39, T 1.23, A 2.33, P 2.12, N 1.5, H 2.4, F 2.3, W 1.6, C 3.79, L 2.95, S 1.98, G 1.54, Q 2.5
P14: T 1.11, W 2.21, R 3.25, E 3.08, Y 1.3, Q 1.47, H 3.08, I 1.15, K 1.9, V 1.84, M 1.72, D 2.76, G 2.52, F 1.24, S 2.5, A 2.72, C 1.19
Y22: H 1.82, V 1.03, R 2.46, A 3.02, N 1.56, L 2.24, C 1.92, G 2.64, T 2.94, F 1.65, W 2.28, S 1.38, D 2.29, M 2.33, P 1.41, I 1.75, E 2.1, Q 3.25, K 1.61
D12: Y 2.35, T 1.37, G 2.33, Q 2.75, K 1.41, P 1.03, S 2.4, H 1.52, M 2.39, E 2.04, C 2.14
E10: V 1.62, M 2.93, S 1.77, Q 2.48, R 1.7, T 2.6, D 1.16, I 3.14, A 1.47
Y23: C 1.49, E 2.52, L 1.39, T 1.57, M 2.06, R 1.96, K 1.73, V 1.3, F 2.27, I 1.5, P 3.56, H 1.51, G 1.96, N 1.51, S 1.83, W 1.78, A 1.75, Q 1.73, D 1.57

Variants of: B2
Assay: as above
Conditions: c terminus: a fixed tail appended

Protein stability index: each site, then its substitutions
K18: N 2.36, V 2.09, F 2.17
F7: G 3.42
V17: N 2.9, S 2.5, K 2.73, H 3.21, C 2.4
S12: F 1.72
S22: L 2.48, F 2.19
F19: A 3.07, E 3.58, N 3.15
S20: F 2.02, N 2.27, A 2.39, W 2.38
S2: L 1.95, I 2.02, R 2.61, Q 2.45, P 2.65
S13: H 2.67
H21: T 2.11, L 2.03
R4: T 2.48, K 2.54
S15: L 2.13, H 2.39
I11: W 2.59, R 2.97
D16: Y 1.61
R24: K 2.65
P1: G 2.69, Y 2.95, C 2.05, F 1.89, T 2.39, A 2.19
I10: W 2.33, D 3.13, T 3.37, G 3.39, C 2.91
G23: E 2.7, C 2.36, T 2.14, I 1.88
S8: C 1.7, F 2.11, M 2.43
I14: M 2.6, E 4
F6: H 2.99
E9: K 2.23, V 2.15, D 2.44, H 1.99
